According to US20030068675, “Position dependent recognition of GNN nucleotide triplets by zinc fingers” (published 2003):
Changes are numbered by the printed parent chain.

Tests used:
Experiment in all cases: EMSA
Conditions in all cases: tags: MBP fusion
ZFP SBS#1174 = ZFP SBS#1174 (synthetic)
Method in brief: (§1)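 Purified ZFP was titrated against labeled double-stranded target (1 nM or lower, at least 10-fold below expected Kd) carrying the natural binding site with flanks. Binding buffer was 10 mM Tris pH 7.5, 100 mM KCl, 1 mM MgCl2, 0.1 mM ZnCl2, 5 mM DTT, 10% glycerol, 0.02% BSA, with equilibration for at least 45 min. Bound and free target were separated on a 10% polyacrylamide gel.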

ZFP SBS#1173 = ZFP SBS#1173 (synthetic)
Method in brief: as §1

ZFP SBS#1098 = ZFP SBS#1098 (synthetic)
Method in brief: as §1

ZFP SBS#1172 = molecular target: T1, ZFP SBS#1172 (synthetic)
T1 chain: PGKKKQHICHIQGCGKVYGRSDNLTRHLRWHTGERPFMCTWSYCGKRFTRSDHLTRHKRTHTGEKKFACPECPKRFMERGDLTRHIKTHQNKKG
Method in brief: as §1

ZFP SBS#1183 = molecular target: T2, ZFP SBS#1183 (synthetic)
T2 chain: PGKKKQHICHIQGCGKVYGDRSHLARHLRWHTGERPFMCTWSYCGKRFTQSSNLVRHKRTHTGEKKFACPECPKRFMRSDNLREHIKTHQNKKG
Method in brief: as §1

ZFP SBS#1182 = ZFP SBS#1182 (synthetic)
Method in brief: as §1

ZFP SBS#1178 = molecular target: T3, ZFP SBS#1178 (synthetic)
T3 chain: T2 chain with Q50T, S52G, R83A, E84R
Method in brief: as §1

ZFP SBS#1160 = molecular target: T4, ZFP SBS#1160 (synthetic)
T4 chain: T2 chain with N81H, R83T, E84T
Method in brief: as §1

ZFP SBS#1126 = molecular target: T5, ZFP SBS#1126 (synthetic)
T5 chain: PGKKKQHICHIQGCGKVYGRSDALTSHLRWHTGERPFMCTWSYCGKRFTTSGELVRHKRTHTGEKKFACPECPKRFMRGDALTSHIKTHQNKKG
Method in brief: as §1

ZFP SBS#1181 = molecular target: T6, ZFP SBS#1181 (synthetic)
T6 chain: T5 chain with T25R, S26Q
Method in brief: as §1

ZFP SBS#1159 = molecular target: T7, ZFP SBS#1159 (synthetic)
T7 chain: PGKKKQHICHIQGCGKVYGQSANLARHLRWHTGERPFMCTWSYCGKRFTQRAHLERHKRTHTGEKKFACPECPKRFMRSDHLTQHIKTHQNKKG
Method in brief: as §1

ZFP SBS#1158 = ZFP SBS#1158 (synthetic)
Method in brief: as §1

ZFP SBS#1165 = ZFP SBS#1165 (synthetic)
Method in brief: as §1

ZFP SBS#1167 = ZFP SBS#1167 (synthetic)
Method in brief: as §1

ZFP SBS#1166 = ZFP SBS#1166 (synthetic)
Method in brief: as §1

ZFP SBS#1100 = molecular target: T8, ZFP SBS#1100 (synthetic)
T8 chain: T1 chain with R20Q, D22G, N23A, S51G, H53A, R56S, E78R, R79S, G80D, D81A
Method in brief: as §1

ZFP SBS#1162 = molecular target: T9, ZFP SBS#1162 (synthetic)
T9 chain: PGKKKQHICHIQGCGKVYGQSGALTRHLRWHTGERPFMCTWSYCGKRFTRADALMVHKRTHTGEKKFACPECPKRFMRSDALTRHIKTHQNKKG
Method in brief: as §1

ZFP SBS#1177 = molecular target: T10, ZFP SBS#1177 (synthetic)
T10 chain: T7 chain with A22G, N23S, A25T, Q50D, A52S, E55A, H81T, T83R, Q84E
Method in brief: as §1

ZFP SBS#1099 = molecular target: T11, ZFP SBS#1099 (synthetic)
T11 chain: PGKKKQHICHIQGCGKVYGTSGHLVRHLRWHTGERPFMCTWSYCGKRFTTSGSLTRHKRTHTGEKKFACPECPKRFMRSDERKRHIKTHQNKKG
Method in brief: as §1

ZFP SBS#1171 = molecular target: T12, ZFP SBS#1171 (synthetic)
T12 chain: T11 chain with T20R, G22D, H23D, V25R, R26T, T50R, G52D, S53N, T55A
Method in brief: as §1

ZFP SBS#1093 = ZFP SBS#1093 (synthetic)
Method in brief: as §1

ZFP SBS#1131 = molecular target: T13, ZFP SBS#1131 (synthetic)
T13 chain: T7 chain with Q20E, S21R, A22G, N23D, A25T, H81A, Q84R
Method in brief: as §1

ZFP SBS#1176 = ZFP SBS#1176 (synthetic)
Method in brief: as §1

ZFP SBS#1163 = molecular target: T14, ZFP SBS#1163 (synthetic)
T14 chain: T9 chain with Q20E, S21R, A23D, R50Q, A51S, D52G, A53H, M55T, V56T
Method in brief: as §1

ZFP SBS#1164 = molecular target: T15, ZFP SBS#1164 (synthetic)
T15 chain: T9 chain with Q20E, S21R, A23D, R50Q, A51S, D52V, A53H, M55Q, V56S
Method in brief: as §1

ZFP SBS#1170 = molecular target: T16, ZFP SBS#1170 (synthetic)
T16 chain: T9 chain with G22S, A23D, T25R, R78D, S79R, D80S, A81D
Method in brief: as §1

ZFP SBS#1092 = molecular target: T17, ZFP SBS#1092 (synthetic)
T17 chain: T1 chain with R20Q, D22S, N23D, T25R, S51G, H53A, R56S, E78D, G80S
Method in brief: as §1

ZFP SBS#1091 = molecular target: T18, ZFP SBS#1091 (synthetic)
T18 chain: T1 chain with R20D, S21R, D22S, H53N, T55A, E78Q, G80A, D81S, T83A
Method in brief: as §1

ZFP SBS#1169 = molecular target: T19, ZFP SBS#1169 (synthetic)
T19 chain: T2 chain with H23N, A25T, Q50R, S52D, V55A, R78Q, D80S, N81S, R83V, E84R
Method in brief: as §1

ZFP SBS#477 = ZFP SBS#477 (synthetic)
Method in brief: as §1

ZFP SBS#478 = ZFP SBS#478 (synthetic, UniProt P08047)
Method in brief: as §1

ZFP SBS#476 = ZFP SBS#476 (synthetic, UniProt P08047)
Method in brief: as §1

ZFP SBS#1175 = ZFP SBS#1175 (synthetic)
Method in brief: as §1

ZFP SBS#1128 = molecular target: T20, ZFP SBS#1128 (synthetic)
T20 chain: T2 chain with D20E, S22G, H23D, A25T, Q50D, S51P, S52G, N53A, R83T, E84Q
Method in brief: as §1

ZFP SBS#1161 = molecular target: T21, ZFP SBS#1161 (synthetic)
T21 chain: T2 chain with Q50D, S51R, N53D, V55T, R83A, E84R
Method in brief: as §1

ZFP SBS#1168 = ZFP SBS#1168 (synthetic)
Method in brief: as §1

ZFP SBS#1090 = molecular target: T22, ZFP SBS#1090 (synthetic, UniProt P08047)
T22 chain: T5 chain with T25R, S26E, T50R, G52D, V55Q, G79S, A81N, S84Q
Method in brief: as §1

B1: GCTGAAGGG (dsDNA)
DNA 1: GCTGAAGGG
DNA 2: CCCTTCAGC
In the case of B1, the Kd (ZFP SBS#1174) is reported as 0.018 nM and the Kd (ZFP SBS#1173) is reported as 8 pM.

B2: GCCGGGGAG (dsDNA)
DNA 1: GCCGGGGAG
DNA 2: CTCCCCGGC
B2 showed a Kd (ZFP SBS#1098) of 0.055 nM and a Kd (ZFP SBS#1172) of 0.01 nM.

B3: CAGGAAGGC (dsDNA)
DNA 1: CAGGAAGGC
DNA 2: GCCTTCCTG
Work on B3 yielded a Kd (ZFP SBS#1183) of 1.94 nM and a Kd (ZFP SBS#1182) of 1.48 nM.

B4: GAGGATGGC (dsDNA)
DNA 1: GAGGATGGC
DNA 2: GCCATCCTC
With B4 the Kd (ZFP SBS#1178) was 0.085 nM.

B5: TGGGAAGGC (dsDNA)
DNA 1: TGGGAAGGC
DNA 2: GCCTTCCCA
B5 showed a Kd (ZFP SBS#1160) of 0.415 nM.

B6: TTGGCTATG (dsDNA)
DNA 1: TTGGCTATG
DNA 2: CATAGCCAA
B6 was tested, and the Kd (ZFP SBS#1126) was 0.46 nM and the Kd (ZFP SBS#1181) was 8.2 nM.

B7: AGGGGAGAA (dsDNA)
DNA 1: AGGGGAGAA
DNA 2: TTCTCCCCT
With B7 the Kd (ZFP SBS#1159) was 0.555 nM and the Kd (ZFP SBS#1158) was 0.1 nM.

B8: GCGAAGGTG (dsDNA)
DNA 1: GCGAAGGTG
DNA 2: CACCTTCGC
Work on B8 yielded a Kd (ZFP SBS#1165) of 1.4 nM, a Kd (ZFP SBS#1167) of 0.95 nM and a Kd (ZFP SBS#1166) of 0.195 nM.

B9: GTGTTGGTA (dsDNA)
DNA 1: GTGTTGGTA
DNA 2: TACCAACAC
B9 gave a Kd (ZFP SBS#1100) of 1.4 nM and a Kd (ZFP SBS#1162) of 0.465 nM.

B10: CCGGGCGCA (dsDNA)
DNA 1: CCGGGCGCA
DNA 2: TGCGCCCGG
Work on B10 yielded a Kd (ZFP SBS#1177) of 4.1 nM.

B11: GCGGAGTCG (dsDNA)
DNA 1: GCGGAGTCG
DNA 2: CGACTCCGC
In the case of B11, the Kd (ZFP SBS#1099) is reported as 0.45 nM, the Kd (ZFP SBS#1171) is reported as 0.18 nM and the Kd (ZFP SBS#1093) is reported as 0.046 nM.

B12: GTGGGAGCC (dsDNA)
DNA 1: GTGGGAGCC
DNA 2: GGCTCCCAC
B12 showed a Kd (ZFP SBS#1131) of 0.95 nM and a Kd (ZFP SBS#1176) of 4.1 nM.

B13: GTGTGAGCC (dsDNA)
DNA 1: GTGTGAGCC
DNA 2: GGCTCACAC
B13 showed a Kd (ZFP SBS#1163) of 1.45 nM and a Kd (ZFP SBS#1164) of 15.4 nM.

B14: GCCTTGGCT (dsDNA)
DNA 1: GCCTTGGCT
DNA 2: AGCCAAGGC
Binder B14 has a Kd (ZFP SBS#1170) of 2.75 nM and a Kd (ZFP SBS#1092) of 2.73 nM.

B15: GTAGAGGAC (dsDNA)
DNA 1: GTAGAGGAC
DNA 2: GTCCTCTAC
Binder B15 has a Kd (ZFP SBS#1091) of 0.085 nM and a Kd (ZFP SBS#1169) of 0.053 nM.

B16: GGAGAGGATG (dsDNA)
DNA 1: GGAGAGGATG
DNA 2: CATCCTCTCC
B16 showed a Kd (ZFP SBS#477) of 100 nM, a Kd (ZFP SBS#478) of 60 nM and a Kd (ZFP SBS#476) of 80 nM.

B17: AAGGTCGCC (dsDNA)
DNA 1: AAGGTCGCC
DNA 2: GGCGACCTT
B17 was tested, and the Kd (ZFP SBS#1175) was 8.9 nM and the Kd (ZFP SBS#1128) was 5.45 nM.

B18: GAGGCCGGC (dsDNA)
DNA 1: GAGGCCGGC
DNA 2: GCCGGCCTC
B18 was tested, and the Kd (ZFP SBS#1161) was 0.45 nM.

B19: AAGGCGCTG (dsDNA)
DNA 1: AAGGCGCTG
DNA 2: CAGCGCCTT
B19 showed a Kd (ZFP SBS#1168) of 2.8 nM and a Kd (ZFP SBS#1090) of 30.3 nM.
